Experimental data: US7115410 (ELAN PHARMACEUTICALS, dated 2006)
Square brackets hold non-standard residues; d marks the D form. Sta = CC(C)C[C@H](N)[C@@H](O)CC(=O)O

Columns and labels:
[1] = target: T1, recombinant β-secretase from 293T cells, minor form starting at Met-63 (human, UniProt P56817 63-501); assay: N-terminal sequencing of fractions from P10-P4′(statine)D→V Sepharose, 293T cells
T1 construct: C-terminus not determined
Method: (§1) The cell pellet was resuspended by homogenizing for 30 seconds using a handheld homogenizer (0.5 ml/pellet of approximately 10^6 cells in extraction buffer consisting of 20 mM TRIS buffer, pH 7.5, 2 mM EDTA, 0.2% Triton X-100, plus protease inhibitors: 5 μg/ml E-64, 10 μg/ml pepstatin, 1 mM PMSF), centrifuged as maximum speed in a microfuge (40 minutes at 4 degrees C.). Pellets were suspended in original volume of extraction buffer, then stirred at 1 hour at 4 degrees C. with rotation, and centrifuted again in a microfuge at maximum speed for 40 minutes. The resulting supernatant was saved as the "extract." The extract was then diluted with 20 mm sodium acetate, pH 5.0, 2 mM EDTA and 0.2% Triton X-100 (SP buffer A), and 5 M NaCl was added to a final concentration of 60 mM NaCl. The pH of the solution was then adjusted to pH 5.0 with glacial acetic acid diluted 1:10 in water. Aliquots were saved ("SP load"). The SP load was passed through a 1 ml SP HiTrap column which was pre-washed with 5 ml SP buffer A, 5 ml SP buffer B (SP buffer A with 1 M NaCl) and 10 ml SP buffer A. An additional 2 ml of 5% SP buffer B was passed through the column to dissplace any remaining sample from the column. The pH of the SP flow-through was adjusted to pH 4.5 with 10× diluted acetic acid. This flow-through was then applied to a P10-P4'staD→V-Sepharose Affinity column, as described below. […]

[2] = target: T2, recombinant β-secretase from Cos A2 cells, major form resulting from Gly-58 cleavage (human, UniProt P56817 58-501); assay: N-terminal sequencing of fractions from P10-P4′(statine)D→V Sepharose, Cos A2 cells
T2 construct: C-terminus not determined
Method: as §1

[3] = target: T3, recombinant β-secretase from 293T or Cos A2 cells transfected with the full-length construct, form with … (human, UniProt P56817 46-501); assay: affinity chromatography on P10-P4′staD→V Sepharose, extracts of transfected 293T and COS A2 cells, pH 4.5
T3 construct: also called Recombinant, 293T; Recombinant, CosA2
Method: as §1

[4] = target: T4, β-secretase 46-452 (human, UniProt P56817 46-452); assay: binding to P10-P4′staD→V affinity matrix
T4 construct: C-terminally truncated form lacking the transmembrane region

[5] = target: T5, recombinant β-secretase from 293T cells, minor form starting at Thr-22 (human, UniProt P56817 22-501); assay: N-terminal sequencing of fractions from P10-P4′staD→V Sepharose, 293T cells
T5 construct: C-terminus not determined
Method: as §1

Measured: binding result

T2 sequence (P56817 58-501): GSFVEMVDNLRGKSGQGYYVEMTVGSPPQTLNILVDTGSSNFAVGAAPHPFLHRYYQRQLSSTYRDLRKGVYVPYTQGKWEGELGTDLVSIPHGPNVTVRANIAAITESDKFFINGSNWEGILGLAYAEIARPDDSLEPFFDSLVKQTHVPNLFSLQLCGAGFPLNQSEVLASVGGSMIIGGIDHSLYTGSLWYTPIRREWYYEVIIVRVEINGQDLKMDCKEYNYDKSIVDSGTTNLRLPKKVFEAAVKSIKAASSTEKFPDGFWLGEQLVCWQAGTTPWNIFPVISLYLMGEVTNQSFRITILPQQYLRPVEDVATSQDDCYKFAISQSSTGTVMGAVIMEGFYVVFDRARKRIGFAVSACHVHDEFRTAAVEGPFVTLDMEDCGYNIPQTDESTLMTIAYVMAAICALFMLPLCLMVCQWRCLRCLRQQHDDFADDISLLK
T4 sequence (P56817 46-452 limits assumed): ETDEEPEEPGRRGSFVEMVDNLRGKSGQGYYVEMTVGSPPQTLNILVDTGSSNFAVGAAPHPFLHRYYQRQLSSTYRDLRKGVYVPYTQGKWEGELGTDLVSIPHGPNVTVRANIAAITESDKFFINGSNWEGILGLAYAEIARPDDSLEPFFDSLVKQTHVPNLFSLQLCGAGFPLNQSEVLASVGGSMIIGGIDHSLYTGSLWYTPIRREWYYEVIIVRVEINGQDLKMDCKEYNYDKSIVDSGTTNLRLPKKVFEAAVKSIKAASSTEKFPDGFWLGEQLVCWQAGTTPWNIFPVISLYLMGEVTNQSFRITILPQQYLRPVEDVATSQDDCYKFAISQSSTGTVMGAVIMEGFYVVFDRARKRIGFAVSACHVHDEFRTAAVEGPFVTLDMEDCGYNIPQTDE
T5 sequence (P56817 22-501): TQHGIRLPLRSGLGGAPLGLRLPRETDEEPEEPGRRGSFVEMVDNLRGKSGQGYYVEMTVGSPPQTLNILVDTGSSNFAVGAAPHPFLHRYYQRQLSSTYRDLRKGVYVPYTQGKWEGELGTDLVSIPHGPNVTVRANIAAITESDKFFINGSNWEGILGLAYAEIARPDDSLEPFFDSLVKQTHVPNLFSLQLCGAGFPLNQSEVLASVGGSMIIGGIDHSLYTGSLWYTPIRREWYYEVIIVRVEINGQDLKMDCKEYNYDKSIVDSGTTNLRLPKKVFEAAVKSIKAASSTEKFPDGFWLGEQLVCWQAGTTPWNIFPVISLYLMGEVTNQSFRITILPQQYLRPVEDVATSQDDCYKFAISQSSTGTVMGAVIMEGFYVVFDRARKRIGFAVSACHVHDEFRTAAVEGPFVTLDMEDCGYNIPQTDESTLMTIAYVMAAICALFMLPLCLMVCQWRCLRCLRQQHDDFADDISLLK
T1 sequence (P56817 63-501): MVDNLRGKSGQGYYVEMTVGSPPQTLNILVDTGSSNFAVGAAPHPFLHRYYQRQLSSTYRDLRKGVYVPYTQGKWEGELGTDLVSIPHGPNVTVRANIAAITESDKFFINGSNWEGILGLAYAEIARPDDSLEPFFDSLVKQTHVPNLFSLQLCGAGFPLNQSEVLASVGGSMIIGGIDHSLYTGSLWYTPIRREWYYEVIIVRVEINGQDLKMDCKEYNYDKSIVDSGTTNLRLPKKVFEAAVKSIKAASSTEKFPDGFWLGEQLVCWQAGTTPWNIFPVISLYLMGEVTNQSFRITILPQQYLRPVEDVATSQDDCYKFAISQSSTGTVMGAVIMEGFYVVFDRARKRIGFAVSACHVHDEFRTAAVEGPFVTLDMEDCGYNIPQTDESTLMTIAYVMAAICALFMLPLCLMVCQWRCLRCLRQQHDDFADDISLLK
T3 sequence (P56817 46-501): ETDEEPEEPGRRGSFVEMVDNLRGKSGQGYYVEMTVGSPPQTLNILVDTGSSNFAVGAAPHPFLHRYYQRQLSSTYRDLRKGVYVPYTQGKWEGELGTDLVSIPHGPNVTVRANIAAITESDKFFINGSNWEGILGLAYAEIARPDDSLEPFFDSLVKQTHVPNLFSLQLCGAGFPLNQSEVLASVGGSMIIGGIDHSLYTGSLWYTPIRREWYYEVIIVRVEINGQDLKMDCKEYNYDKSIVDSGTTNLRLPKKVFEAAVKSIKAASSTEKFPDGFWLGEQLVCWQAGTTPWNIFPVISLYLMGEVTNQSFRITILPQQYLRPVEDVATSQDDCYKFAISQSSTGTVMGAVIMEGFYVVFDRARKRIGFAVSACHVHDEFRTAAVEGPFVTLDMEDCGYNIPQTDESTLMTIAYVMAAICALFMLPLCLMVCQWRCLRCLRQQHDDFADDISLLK

B1: P10-P4′staD→V (NH2-KTEEISEVN[sta]VAEF-COOH) (peptide)
peptide: H-KTEEISEVN[Sta]VAEF-OH
notes: Synthetic statine peptide derived from the APPsw cleavage site with D→V at P1′; also called P10-P4′(statine)D→V
binds: all assays above
